Measured values from US20080181903A1, “CONJUGATE OF NATRIURETIC PEPTIDE AND ANTIBODY CONSTANT REGION” (PDL BioPharma, Inc., priority 2006, published 2008).
Blank lines part the entries; values can stand above or below the molecule they belong to.

Assays:
[1] = molecular target: NPR-A receptor expressed on transfected cells; assay: cell-based or functional assay
[2] = molecular target: NPR-A-Fc receptor fusion protein (human); assay: SPR (BIAcore), NPR-A-Fc captured by anti-human Fc, analyte injected, 1:1 Langmuir fit
[3] = molecular target: NPR-A-Fc receptor fusion protein (human); assay: BIAcore surface plasmon resonance; NPR-A-Fc captured by immobilized goat anti-human Fc gamma antibody, analyte injected; 1:1 Langmuir fit
[4] = molecular target: NPR-A-Fc receptor fusion protein (human); assay: SPR (BIAcore), NPR-A-Fc captured by anti-human Fc, analyte injected, 1:1 Langmuir fit; experiment with Fc-Uro
[5] = molecular target: NPR-A-Fc receptor fusion protein (human); assay: SPR (BIAcore), NPR-A-Fc captured by anti-human Fc, analyte injected, 1:1 Langmuir fit; experiment with Uro-Fc
[6] = molecular target: T1, purified NPR-A-Fc fusion protein (extracellular domain of the receptor NPR-A) (Homo sapiens, UniProt P16066); assay: BIAcore natriuretic peptide receptor (NPR) binding assay; details: Fc-Uro vs ularitide comparison (FIG. 2B), n=6, read-out: Binding affinities (KD) on the NPR-A receptor
T1 construct: Expression construct encoding for the extracellular domain of the receptor NPR-A fused to the DNA encoding for the Fc domain of human immunoglobulin; made in house
T1 sequence (P16066 33-473 limits assumed): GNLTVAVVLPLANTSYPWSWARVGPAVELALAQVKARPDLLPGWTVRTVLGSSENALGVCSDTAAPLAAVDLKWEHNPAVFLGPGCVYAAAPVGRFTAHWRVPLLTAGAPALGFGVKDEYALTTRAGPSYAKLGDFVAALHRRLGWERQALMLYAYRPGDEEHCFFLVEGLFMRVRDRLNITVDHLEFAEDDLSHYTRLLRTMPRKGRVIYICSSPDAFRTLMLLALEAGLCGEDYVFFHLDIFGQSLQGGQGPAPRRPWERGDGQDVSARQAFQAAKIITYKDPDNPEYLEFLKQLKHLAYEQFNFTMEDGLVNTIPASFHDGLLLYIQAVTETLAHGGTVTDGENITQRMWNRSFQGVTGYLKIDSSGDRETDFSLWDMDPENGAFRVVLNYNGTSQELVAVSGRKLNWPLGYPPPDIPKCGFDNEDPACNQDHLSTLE
Method: Kinetics measurements for analytes resulting in estimates of binding affinity constants (KD) were performed using BIAcore 2000 & 3000 instruments and methods recommended by the manufacturer (BIAcore, Sweden). […] Purified NPR-A-Fc receptor fusion proteins were captured by goat anti-human Fcγ (GAHFc) antibodies (Jackson ImmunoResearch, Cat 109-005-098) immobilized onto the sensorchip surface. The unoccupied GAHFc after the capture was shielded from analytes by the injection of human Fc (huFc, Jackson ImmunoResearch, Cat 009-000-008). Analytes were injected to obtain an association phase followed by injection of HBS-P running buffer (10 mM HEPES, 150 mM sodium chloride, 0.005% P-20 surfactant, pH 7.4) to monitor dissociation for each binding cycle.
The binding kinetics of each analyte-receptor pair was calculated from a global analysis of sensorgram data collected from different analyte concentrations using the BIAevaluate program (BIAcore, Sweden). The affinity (KD) resulting from association (ka) and dissociation (kd) of each analyte against each receptor was obtained by simultaneously fitting the association and dissociation phases of the sensorgram from the analyte concentration series using the same 1:1 Langmuir model from the BIAevaluate software (BIAcore, Sweden).

[7] = molecular target: T2, NPR-A receptor (Homo sapiens, UniProt P16066); assay: NPR-A receptor activation, intracellular cGMP in transfected cells; format: cell-based; details: cells expressing NPR-A; Fc-Uro vs ularitide (FIG. 3B); read-out: EC50 of cGMP induction
T2 construct: expressed in transfected cells; host or cells: mammalian tissue culture cells (e.g., 3T12 cells)
T2 sequence (P16066 33-1061): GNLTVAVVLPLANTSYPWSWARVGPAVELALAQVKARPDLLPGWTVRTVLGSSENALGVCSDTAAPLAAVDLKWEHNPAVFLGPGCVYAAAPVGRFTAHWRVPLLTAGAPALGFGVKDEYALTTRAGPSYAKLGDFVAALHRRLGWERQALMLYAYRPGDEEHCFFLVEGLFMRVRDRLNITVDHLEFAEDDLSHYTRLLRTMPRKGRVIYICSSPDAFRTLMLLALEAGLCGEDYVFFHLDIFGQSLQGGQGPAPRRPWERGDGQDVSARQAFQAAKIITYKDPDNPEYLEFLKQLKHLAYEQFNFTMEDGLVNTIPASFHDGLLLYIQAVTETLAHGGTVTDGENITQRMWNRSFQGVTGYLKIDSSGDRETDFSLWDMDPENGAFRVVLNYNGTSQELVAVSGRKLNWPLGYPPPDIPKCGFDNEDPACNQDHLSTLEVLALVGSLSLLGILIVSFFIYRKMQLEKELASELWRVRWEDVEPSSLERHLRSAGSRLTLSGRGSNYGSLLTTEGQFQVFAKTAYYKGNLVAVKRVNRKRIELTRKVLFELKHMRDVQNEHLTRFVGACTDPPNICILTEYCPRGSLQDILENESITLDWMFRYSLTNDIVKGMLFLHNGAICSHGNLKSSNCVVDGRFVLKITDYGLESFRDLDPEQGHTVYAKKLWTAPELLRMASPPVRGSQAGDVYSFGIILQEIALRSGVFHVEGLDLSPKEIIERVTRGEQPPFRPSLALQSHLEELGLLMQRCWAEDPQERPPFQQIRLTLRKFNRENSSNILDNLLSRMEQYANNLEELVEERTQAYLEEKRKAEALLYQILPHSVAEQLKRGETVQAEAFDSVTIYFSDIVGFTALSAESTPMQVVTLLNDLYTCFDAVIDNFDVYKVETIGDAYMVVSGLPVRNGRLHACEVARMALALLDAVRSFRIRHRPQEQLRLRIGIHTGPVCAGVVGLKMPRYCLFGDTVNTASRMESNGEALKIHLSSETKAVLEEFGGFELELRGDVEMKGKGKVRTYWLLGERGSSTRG
Method: NPR-A receptor activation by test compounds was determined by incubation with mammalian cells transfected with expression vector DNA encoding for the NPR-A receptor and measuring the amount of cGMP generated in these cells.
Mammalian tissue culture cells (e.g., 3T12 cells) transfected with expression vector DNA encoding for the NPR-A were cultured in 96-well microtiter plates for 18-20 hours (˜50,000 cells/well) using standard tissue culture conditions. The tissue culture medium was then changed to serum-free medium, cells were pre-incubated with 1 mM IBMX for 30 minutes and treated with various concentrations of test compounds for 10 minutes. Cells were then lysed with 0.2 ml/well of 0.1 M HCl for 20 min, and lysates centrifuged at 1000×g for 2 min. The cGMP in the supernatants was determined using a commercial kit (Direct cGMP EIA Kit, Assay Designs, Inc., Cat#901-014) according to the manufacturer's instructions.

Molecule: Uro-Fc(huFcG1(m1)) fusion protein (Fc fusion)
- intracellular cGMP levels, EC50 [1]: 26.3 nM
- Kd [2]: 7000 nM
- Kd [3]: 0.007 nM

Molecule: Fc-Uro(huFcG1(m1)) fusion protein (from UniProt P01857 104-330) (Fc fusion)
- intracellular cGMP levels, EC50 [1]: 86 nM
- Kd [2]: 0.35 nM

Next, values leading:

- Kd [4]: 0.0042 nM
- Kd [5]: 3100 nM
- Kd [3]: 0.0031 nM
Molecule: ularitide (peptide)

- Kd [6]: 0.35 ± 0.1 nM
- EC50 [7]: 86 nM
B1: Fc-Uro(huFcG1(m1)): fusion protein: Fc portion of variant human immunoglobulin heavy constant gamma 1 at amino terminus and human urodilatin at carboxy terminus (protein)
chain: DKTHTCPPCPAPEAEGAPSVFLFPPKPKDTLMISRTPEVTCVVVDVSHEDPEVKFNWYVDGVEVHNAKTKPREEQYNSTYRVVSVLTVLHQDWLNGKEYKCKVSNKALPAPIEKTISKAKGQPREPQVYTLPPSRQELTKNQVSLTCLVKGFYPSDIAVEWESNGQPENNYKTTPPVLDSDGSFFLYSKLTVDKSRWQQGNVFSCSVMHEALHNHYTQKSLSLSPGKTAPRSLRRSSCFGGRMDRIGAQSGLGCNSFRY
